B1: DNA topoisomerase 3-beta-1 (Homo sapiens), O95985 (parent)
chain: MKTVLMVAEKPSLAQSIAKILSRGSLSSHKGLNGACSVHEYTGTFAGQPVRFKMTSVCGHVMTLDFLGKYNKWDKVDPAELFSQAPTEKKEANPKLNMVKFLQVEGRGCDYIVLWLDCDKEGENICFEVLDAVLPVMNKAHGGEKTVFRARFSSITDTDICNAMACLGEPDHNEALSVDARQELDLRIGCAFTRFQTKYFQGKYGDLDSSLISFGPCQTPTLGFCVERHDKIQSFKPETYWVLQAKVNTDKDRSLLLDWDRVRVFDREIAQMFLNMTKLEKEAQVEATSRKEKAKQRPLALNTVEMLRVASSSLGMGPQHAMQTAERLYTQGYISYPRTETTHYPENFDLKGSLRQQANHPYWADTVKRLLAEGINRPRKGHDAGDHPPITPMKSATEAELGGDAWRLYEYITRHFIATVSHDCKYLQSTISFRIGPELFTCSGKTVLSPGFTEVMPWQSVPLEESLPTCQRGDAFPVGEVKMLEKQTNPPDYLTEAELITLMEKHGIGTDASIPVHINNICQRNYVTVESGRRLKPTNLGIVLVHGYYKIDAELVLPTIRSAVEKQLNLIAQGKADYRQVLGHTLDVFKRKFHYFVDSIAGMDELMEVSFSPLAATGKPLSRCGKCHRFMKYIQAKPSRLHCSHCDETYTLPQNGTIKLYKELRCPLDDFELVLWSSGSRGKSYPLCPYCYNHPPFRDMKKGMGCNECTHPSCQHSLSMLGIGQCVECESGVLVLDPTSGPKWKVACNKCNVVAHCFENAHRVRVSADTCSVCEAALLDVDFNKAKSPLPGDETQHMGCVFCDPVFQELVELKHAASCHPMHRGGPGRRQGRGRGRARRPPGKPNPRRPKDKMSALAAYFV
B2: Cyclic AMP-dependent transcription factor ATF-4 (Homo sapiens), P18848 (parent)
chain: MTEMSFLSSEVLVGDLMSPFDQSGLGAEESLGLLDDYLEVAKHFKPHGFSSDKAKAGSSEWLAVDGLVSPSNNSKEDAFSGTDWMLEKMDLKEFDLDALLGIDDLETMPDDLLTTLDDTCDLFAPLVQETNKQPPQTVNPIGHLPESLTKPDQVAPFTFLQPLPLSPGVLSSTPDHSFSLELGSEVDITEGDRKPDYTAYVAMIPQCIKEEDTPSDNDSGICMSPESYLGSPQHSPSTRGSPNRSLPSPGVLCGSARPKPYDPPGEKMVAAKVKGEKLDKKLKKMEQNKTAATRYRQKKRAEQEALTGECKELEKKNEALKERADSLAKEIQYLKDLIEEVRKARGKKRVP
partner: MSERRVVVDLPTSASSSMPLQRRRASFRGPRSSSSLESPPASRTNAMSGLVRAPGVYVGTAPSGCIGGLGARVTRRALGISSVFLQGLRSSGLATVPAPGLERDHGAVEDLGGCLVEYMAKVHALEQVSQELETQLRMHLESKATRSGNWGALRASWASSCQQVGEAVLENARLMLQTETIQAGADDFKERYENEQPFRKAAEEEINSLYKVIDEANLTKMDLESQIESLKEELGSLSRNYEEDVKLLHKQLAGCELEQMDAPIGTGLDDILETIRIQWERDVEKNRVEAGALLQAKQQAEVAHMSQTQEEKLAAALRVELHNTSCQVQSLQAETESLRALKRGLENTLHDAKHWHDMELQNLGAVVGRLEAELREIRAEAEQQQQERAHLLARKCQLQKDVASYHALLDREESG
B3: Keratin, type I cuticular Ha8 (Homo sapiens), O76015 (parent)
chain: MTSSYSSSSCPLGCTMAPGARNVSVSPIDIGCQPGAEANIAPMCLLANVAHANRVRVGSTPLGRPSLCLPPTCHTACPLPGTCHIPGNIGICGAYGENTLNGHEKETMQFLNDRLANYLEKVRQLEQENAELEATLLERSKCHESTVCPDYQSYFHTIEELQQKILCSKAENARLIVQIDNAKLAADDFRIKLESERSLRQLVEADKCGTQKLLDDATLAKADLEAQQESLKEEQLSLKSNHEQEVKILRSQLGEKLRIELDIEPTIDLNRVLGEMRAQYEAMLETNRQDVEQWFQAQSEGISLQDMSCSEELQCCQSEILELRCTVNALEVERQAQHTLKDCLQNSLCEAEDRFGTELAQMQSLISNVEEQLSEIRADLERQNQEYQVLLDVKTRLENEIATYRNLLESEDCKLPCNPCSTSPSCVTAPCAPRPSCGPCTTCGPTCGASTTGSRF
partner: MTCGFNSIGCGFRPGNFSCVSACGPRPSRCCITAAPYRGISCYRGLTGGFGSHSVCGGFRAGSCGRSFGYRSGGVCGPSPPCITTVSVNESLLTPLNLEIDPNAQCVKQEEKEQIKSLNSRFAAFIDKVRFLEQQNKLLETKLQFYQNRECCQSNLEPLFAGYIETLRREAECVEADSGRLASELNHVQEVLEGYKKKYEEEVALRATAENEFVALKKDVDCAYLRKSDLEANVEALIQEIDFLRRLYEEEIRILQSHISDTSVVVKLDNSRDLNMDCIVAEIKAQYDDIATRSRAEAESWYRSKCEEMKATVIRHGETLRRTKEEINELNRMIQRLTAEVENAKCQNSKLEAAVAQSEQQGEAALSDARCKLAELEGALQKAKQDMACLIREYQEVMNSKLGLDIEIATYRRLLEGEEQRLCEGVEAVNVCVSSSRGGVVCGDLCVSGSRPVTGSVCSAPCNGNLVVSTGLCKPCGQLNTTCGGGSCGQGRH
B4: Mothers against decapentaplegic homolog 4 (Homo sapiens), Q13485 (parent)
chain: MDNMSITNTPTSNDACLSIVHSLMCHRQGGESETFAKRAIESLVKKLKEKKDELDSLITAITTNGAHPSKCVTIQRTLDGRLQVAGRKGFPHVIYARLWRWPDLHKNELKHVKYCQYAFDLKCDSVCVNPYHYERVVSPGIDLSGLTLQSNAPSSMMVKDEYVHDFEGQPSLSTEGHSIQTIQHPPSNRASTETYSTPALLAPSESNATSTANFPNIPVASTSQPASILGGSHSEGLLQIASGPQPGQQQNGFTGQPATYHHNSTTTWTGSRTAPYTPNLPHHQNGHLQHHPPMPPHPGHYWPVHNELAFQPPISNHPAPEYWCSIAYFEMDVQVGETFKVPSSCPIVTVDGYVDPSGGDRFCLGQLSNVHRTEAIERARLHIGKGVQLECKGEGDVWVRCLSDHAVFVQSYYLDREAGRAPGDAVHKIYPSAYIKVFDLRQCHRQMQQQAATAQAAAAAQAAAVAGNIPGPGSVGGIAPAISLSAAAGIGVDDLRRLCILRMSFVKGWGPDYPRQSIKETPCWIEIHLHRALQLLDEVLHTMPIADPQPLD
B5: Solute carrier family 35 member C2 (Homo sapiens), Q9NQQ7 (parent)
chain: MGRWALDVAFLWKAVLTLGLVLLYYCFSIGITFYNKWLTKSFHFPLFMTMLHLAVIFLFSALSRALVQCSSHRARVVLSWADYLRRVAPTALATALDVGLSNWSFLYVTVSLYTMTKSSAVLFILIFSLIFKLEELRAALVLVVLLIAGGLFMFTYKSTQFNVEGFALVLGASFIGGIRWTLTQMLLQKAELGLQNPIDTMFHLQPLMFLGLFPLFAVFEGLHLSTSEKIFRFQDTGLLLRVLGSLFLGGILAFGLGFSEFLLVSRTSSLTLSIAGIFKEVCTLLLAAHLLGDQISLLNWLGFALCLSGISLHVALKALHSRGDGGPKALKGLGSSPDLELLLRSSQREEGDNEEEEYFVAQGQQ
B6: Kinetochore protein NDC80 homolog (Homo sapiens), O14777 (parent)
chain: MKRSSVSSGGAGRLSMQELRSQDVNKQGLYTPQTKEKPTFGKLSINKPTSERKVSLFGKRTSGHGSRNSQLGIFSSSEKIKDPRPLNDKAFIQQCIRQLCEFLTENGYAHNVSMKSLQAPSVKDFLKIFTFLYGFLCPSYELPDTKFEEEVPRIFKDLGYPFALSKSSMYTVGAPHTWPHIVAALVWLIDCIKIHTAMKESSPLFDDGQPWGEETEDGIMHNKLFLDYTIKCYESFMSGADSFDEMNAELQSKLKDLFNVDAFKLESLEAKNRALNEQIARLEQEREKEPNRLESLRKLKASLQGDVQKYQAYMSNLESHSAILDQKLNGLNEEIARVELECETIKQENTRLQNIIDNQKYSVADIERINHERNELQQTINKLTKDLEAEQQKLWNEELKYARGKEAIETQLAEYHKLARKLKLIPKGAENSKGYDFEIKFNPEAGANCLVKYRAQVYVPLKELLNETEEEINKALNKKMGLEDTLEQLNAMITESKRSVRTLKEEVQKLDDLYQQKIKEAEEEDEKCASELESLEKHKHLLESTVNQGLSEAMNELDAVQREYQLVVQTTTEERRKVGNNLQRLLEMVATHVGSVEKHLEEQIAKVDREYEECMSEDLSENIKEIRDKYEKKATLIKSSEE
partner: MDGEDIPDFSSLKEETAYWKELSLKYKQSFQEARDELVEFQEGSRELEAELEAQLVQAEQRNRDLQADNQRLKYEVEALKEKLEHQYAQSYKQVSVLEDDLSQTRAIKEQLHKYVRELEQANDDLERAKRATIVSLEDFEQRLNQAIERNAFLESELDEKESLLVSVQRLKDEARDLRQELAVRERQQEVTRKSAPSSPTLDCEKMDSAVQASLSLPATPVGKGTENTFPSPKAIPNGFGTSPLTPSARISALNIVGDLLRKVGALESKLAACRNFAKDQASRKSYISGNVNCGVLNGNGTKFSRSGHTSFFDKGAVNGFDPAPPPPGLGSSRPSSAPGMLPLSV
B7: Kinetochore protein NDC80 homolog (Homo sapiens), O14777 (parent)
chain: B6 chain
partner: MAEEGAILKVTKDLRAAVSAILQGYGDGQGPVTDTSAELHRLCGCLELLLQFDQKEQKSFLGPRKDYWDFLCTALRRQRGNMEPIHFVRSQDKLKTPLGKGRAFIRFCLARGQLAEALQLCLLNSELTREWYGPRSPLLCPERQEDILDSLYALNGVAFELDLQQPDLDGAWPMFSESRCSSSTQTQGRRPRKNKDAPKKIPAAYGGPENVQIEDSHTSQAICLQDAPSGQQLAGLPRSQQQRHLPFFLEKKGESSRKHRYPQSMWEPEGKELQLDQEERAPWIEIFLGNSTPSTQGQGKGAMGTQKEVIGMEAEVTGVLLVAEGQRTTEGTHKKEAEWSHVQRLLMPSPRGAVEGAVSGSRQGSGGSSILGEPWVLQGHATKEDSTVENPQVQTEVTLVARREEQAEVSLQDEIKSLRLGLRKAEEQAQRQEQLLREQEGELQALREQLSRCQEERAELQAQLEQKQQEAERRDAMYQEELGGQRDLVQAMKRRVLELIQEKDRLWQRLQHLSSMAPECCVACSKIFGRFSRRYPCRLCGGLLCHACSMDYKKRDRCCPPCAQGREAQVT

Variants of: B1
Conditions: with spre2_human SPRED2, Q7Z698
spre2_human SPRED2, Q7Z698, sequence (Q7Z698 whole entry): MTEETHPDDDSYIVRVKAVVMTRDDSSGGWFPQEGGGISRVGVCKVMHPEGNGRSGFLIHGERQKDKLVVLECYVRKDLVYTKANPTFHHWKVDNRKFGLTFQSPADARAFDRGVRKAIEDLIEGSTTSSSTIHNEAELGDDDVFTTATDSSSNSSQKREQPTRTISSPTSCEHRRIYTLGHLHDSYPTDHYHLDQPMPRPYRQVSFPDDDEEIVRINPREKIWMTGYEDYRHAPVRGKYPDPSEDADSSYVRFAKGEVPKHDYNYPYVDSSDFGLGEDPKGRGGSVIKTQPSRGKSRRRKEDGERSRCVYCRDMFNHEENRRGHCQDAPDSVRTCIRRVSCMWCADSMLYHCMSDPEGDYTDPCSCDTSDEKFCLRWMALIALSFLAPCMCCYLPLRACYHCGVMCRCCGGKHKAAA
C666R was tested, and the “effect of a mutation on the interaction” value was “disrupting interaction strength”.

Variants of: B2
Conditions: with bfsp2_human BFSP2, Q13515
In the case of L180F, the “effect of a mutation on the interaction” value is reported as “with no effect”.

Variants of: B3
Conditions: with krt83_human KRT83, P78385
In the case of D306A, the “effect of a mutation on the interaction” value is reported as “with no effect”.

Variants of: B3
Conditions: with krt83_human KRT83, P78385
Remark: another data set of the same source
N270K was tested, and the “effect of a mutation on the interaction” value was “with no effect”.

Variants of: B4
Conditions: with ews_human EWSR1, Q01844
ews_human EWSR1, Q01844, sequence (Q01844 whole entry): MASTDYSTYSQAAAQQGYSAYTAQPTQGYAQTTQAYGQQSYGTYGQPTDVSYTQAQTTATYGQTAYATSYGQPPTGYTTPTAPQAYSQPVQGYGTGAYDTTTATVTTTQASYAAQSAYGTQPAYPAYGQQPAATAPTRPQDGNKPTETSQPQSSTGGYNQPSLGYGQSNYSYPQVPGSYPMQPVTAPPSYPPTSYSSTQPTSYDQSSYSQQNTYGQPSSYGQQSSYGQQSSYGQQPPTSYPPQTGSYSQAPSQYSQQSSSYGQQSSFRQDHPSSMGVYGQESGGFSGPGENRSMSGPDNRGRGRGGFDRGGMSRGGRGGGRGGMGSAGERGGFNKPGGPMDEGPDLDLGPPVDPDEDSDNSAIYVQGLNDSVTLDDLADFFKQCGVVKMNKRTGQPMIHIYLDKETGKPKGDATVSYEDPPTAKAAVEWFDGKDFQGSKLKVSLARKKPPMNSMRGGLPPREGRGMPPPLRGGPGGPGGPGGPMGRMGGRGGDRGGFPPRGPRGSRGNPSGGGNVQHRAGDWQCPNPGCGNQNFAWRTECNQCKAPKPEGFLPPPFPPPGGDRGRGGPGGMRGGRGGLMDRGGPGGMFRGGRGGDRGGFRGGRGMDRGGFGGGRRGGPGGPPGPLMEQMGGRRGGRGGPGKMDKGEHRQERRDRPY
I500V was tested, and the “effect of a mutation on the interaction” value was “disrupting interaction strength”.

Variants of: B4
Conditions: with smad3_human SMAD3, P84022
smad3_human SMAD3, P84022, sequence (P84022 whole entry, looked up): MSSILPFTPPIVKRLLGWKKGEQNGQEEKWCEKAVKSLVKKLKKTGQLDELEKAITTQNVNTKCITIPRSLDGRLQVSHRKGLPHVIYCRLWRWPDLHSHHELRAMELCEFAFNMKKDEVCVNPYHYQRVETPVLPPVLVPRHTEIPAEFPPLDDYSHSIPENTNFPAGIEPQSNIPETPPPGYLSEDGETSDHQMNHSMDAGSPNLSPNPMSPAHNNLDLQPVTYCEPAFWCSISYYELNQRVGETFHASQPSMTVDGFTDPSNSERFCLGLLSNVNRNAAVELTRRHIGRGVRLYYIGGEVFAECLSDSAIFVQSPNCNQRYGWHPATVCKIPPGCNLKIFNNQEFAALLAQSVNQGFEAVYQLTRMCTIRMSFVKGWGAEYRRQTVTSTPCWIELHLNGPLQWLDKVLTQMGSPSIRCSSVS
With I500V the “effect of a mutation on the interaction” value was “with no effect”.

Variants of: B5
Conditions: with creb3_human CREB3, O43889
creb3_human CREB3, O43889, sequence (O43889 whole entry): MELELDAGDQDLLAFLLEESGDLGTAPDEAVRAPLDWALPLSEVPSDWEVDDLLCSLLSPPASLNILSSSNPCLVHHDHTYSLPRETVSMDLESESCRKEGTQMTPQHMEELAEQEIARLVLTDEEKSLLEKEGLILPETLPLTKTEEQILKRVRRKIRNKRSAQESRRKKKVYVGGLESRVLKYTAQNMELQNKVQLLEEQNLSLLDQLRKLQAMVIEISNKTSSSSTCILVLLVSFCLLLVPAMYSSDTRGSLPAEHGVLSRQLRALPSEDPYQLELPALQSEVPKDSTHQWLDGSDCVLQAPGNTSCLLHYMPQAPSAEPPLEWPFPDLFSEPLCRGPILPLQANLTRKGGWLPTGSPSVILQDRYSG
In the case of G176S, the “effect of a mutation on the interaction” value is reported as “with no effect”.

Variants of: B6
Conditions: with ndel1_human NDEL1, Q9GZM8
K288E was tested, and the “effect of a mutation on the interaction” value was “with no effect”.

Variants of: B7
Conditions: with rufy4_human RUFY4, Q6ZNE9
In the case of K288E, the “effect of a mutation on the interaction” value is reported as “with no effect”.

From IntAct's records for PubMed 29892012
